Paper PMC6239862

Biological target: Q-PAS1 fragment of PpsR2 (Q-linker and PAS1 domain) fused with mRuby2 (Rhodopseudomonas palustris)
Assay: cross-linking

stoichiometry N: 2
Substance: Q-PAS1 fragment of PpsR2 (Q-linker and PAS1 domain) fused with mRuby2 (domain or fragment)
